Test results taken from patent US20200087373A1 (UNIVERSITY OF COPENHAGEN, published 2020).
Ends that are not written are not given here. * marks the point of attachment. C16 diacid = O=C(O)CCCCCCCCCCCCCCC(=O)*

T1: human GIP receptor (human, UniProt P48546 22-466)
T1 construct: whole, on cells; Transiently transfected COS-7 cells expressing the human GIP receptor; also called hGIPR
T1 sequence (looked up): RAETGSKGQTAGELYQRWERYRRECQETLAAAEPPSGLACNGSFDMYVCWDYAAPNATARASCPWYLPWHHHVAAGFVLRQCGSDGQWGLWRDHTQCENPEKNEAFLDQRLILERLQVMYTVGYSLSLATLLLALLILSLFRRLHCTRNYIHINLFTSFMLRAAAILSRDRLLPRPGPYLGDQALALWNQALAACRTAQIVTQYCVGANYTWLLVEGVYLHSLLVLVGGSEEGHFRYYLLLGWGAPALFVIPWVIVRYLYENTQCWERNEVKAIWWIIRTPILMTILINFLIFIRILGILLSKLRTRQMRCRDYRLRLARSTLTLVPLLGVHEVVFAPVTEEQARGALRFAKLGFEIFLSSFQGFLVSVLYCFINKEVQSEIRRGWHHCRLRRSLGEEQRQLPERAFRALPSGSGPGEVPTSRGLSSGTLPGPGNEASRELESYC

B1: AT173 [hGIP(5-30)NH2[S11K]-C16diacid/11] (peptide)
peptide: TFISDYK(C16 diacid)IAMDKIHQQDFVNWLLAQK-NH2
modifications: N-terminus assumed
SMILES: CC[C@H](C)[C@H](NC(=O)[C@H](CCCCNC(=O)CCCCCCCCCCCCCCC(=O)O)NC(=O)[C@H](Cc1ccc(O)cc1)NC(=O)[C@H](CC(=O)O)NC(=O)[C@H](CO)NC(=O)[C@@H](NC(=O)[C@H](Cc1ccccc1)NC(=O)[C@@H](N)[C@@H](C)O)[C@@H](C)CC)C(=O)N[C@@H](C)C(=O)N[C@@H](CCSC)C(=O)N[C@@H](CC(=O)O)C(=O)N[C@@H](CCCCN)C(=O)N[C@H](C(=O)N[C@@H](Cc1c[nH]cn1)C(=O)N[C@@H](CCC(N)=O)C(=O)N[C@@H](CCC(N)=O)C(=O)N[C@@H](CC(=O)O)C(=O)N[C@@H](Cc1ccccc1)C(=O)N[C@H](C(=O)N[C@@H](CC(N)=O)C(=O)N[C@@H](Cc1c[nH]c2ccccc12)C(=O)N[C@@H](CC(C)C)C(=O)N[C@@H](CC(C)C)C(=O)N[C@@H](C)C(=O)N[C@@H](CCC(N)=O)C(=O)N[C@@H](CCCCN)C(N)=O)C(C)C)[C@@H](C)CC
B2: AT176 [hGIP(5-30)NH2[M14K]-C16diacid/14] (peptide)
peptide: TFISDYSIAK(C16 diacid)DKIHQQDFVNWLLAQK-NH2
modifications: N-terminus assumed
SMILES: CC[C@H](C)[C@H](NC(=O)[C@H](CO)NC(=O)[C@H](Cc1ccc(O)cc1)NC(=O)[C@H](CC(=O)O)NC(=O)[C@H](CO)NC(=O)[C@@H](NC(=O)[C@H](Cc1ccccc1)NC(=O)[C@@H](N)[C@@H](C)O)[C@@H](C)CC)C(=O)N[C@@H](C)C(=O)N[C@@H](CCCCNC(=O)CCCCCCCCCCCCCCC(=O)O)C(=O)N[C@@H](CC(=O)O)C(=O)N[C@@H](CCCCN)C(=O)N[C@H](C(=O)N[C@@H](Cc1c[nH]cn1)C(=O)N[C@@H](CCC(N)=O)C(=O)N[C@@H](CCC(N)=O)C(=O)N[C@@H](CC(=O)O)C(=O)N[C@@H](Cc1ccccc1)C(=O)N[C@H](C(=O)N[C@@H](CC(N)=O)C(=O)N[C@@H](Cc1c[nH]c2ccccc12)C(=O)N[C@@H](CC(C)C)C(=O)N[C@@H](CC(C)C)C(=O)N[C@@H](C)C(=O)N[C@@H](CCC(N)=O)C(=O)N[C@@H](CCCCN)C(N)=O)C(C)C)[C@@H](C)CC
B3: AT175 [hGIP(5-30)NH2[A13K]-C16diacid/13] (peptide)
peptide: TFISDYSIK(C16 diacid)MDKIHQQDFVNWLLAQK-NH2
modifications: N-terminus assumed
SMILES: CC[C@H](C)[C@H](NC(=O)[C@H](CCCCN)NC(=O)[C@H](CC(=O)O)NC(=O)[C@H](CCSC)NC(=O)[C@H](CCCCNC(=O)CCCCCCCCCCCCCCC(=O)O)NC(=O)[C@@H](NC(=O)[C@H](CO)NC(=O)[C@H](Cc1ccc(O)cc1)NC(=O)[C@H](CC(=O)O)NC(=O)[C@H](CO)NC(=O)[C@@H](NC(=O)[C@H](Cc1ccccc1)NC(=O)[C@@H](N)[C@@H](C)O)[C@@H](C)CC)[C@@H](C)CC)C(=O)N[C@@H](Cc1c[nH]cn1)C(=O)N[C@@H](CCC(N)=O)C(=O)N[C@@H](CCC(N)=O)C(=O)N[C@@H](CC(=O)O)C(=O)N[C@@H](Cc1ccccc1)C(=O)N[C@H](C(=O)N[C@@H](CC(N)=O)C(=O)N[C@@H](Cc1c[nH]c2ccccc12)C(=O)N[C@@H](CC(C)C)C(=O)N[C@@H](CC(C)C)C(=O)N[C@@H](C)C(=O)N[C@@H](CCC(N)=O)C(=O)N[C@@H](CCCCN)C(N)=O)C(C)C
B4: AT177 [hGIP(5-30)NH2[D15K]-C16diacid/15] (peptide)
peptide: TFISDYSIAMK(C16 diacid)KIHQQDFVNWLLAQK-NH2
modifications: N-terminus assumed
SMILES: CC[C@H](C)[C@H](NC(=O)[C@H](CO)NC(=O)[C@H](Cc1ccc(O)cc1)NC(=O)[C@H](CC(=O)O)NC(=O)[C@H](CO)NC(=O)[C@@H](NC(=O)[C@H](Cc1ccccc1)NC(=O)[C@@H](N)[C@@H](C)O)[C@@H](C)CC)C(=O)N[C@@H](C)C(=O)N[C@@H](CCSC)C(=O)N[C@@H](CCCCNC(=O)CCCCCCCCCCCCCCC(=O)O)C(=O)N[C@@H](CCCCN)C(=O)N[C@H](C(=O)N[C@@H](Cc1c[nH]cn1)C(=O)N[C@@H](CCC(N)=O)C(=O)N[C@@H](CCC(N)=O)C(=O)N[C@@H](CC(=O)O)C(=O)N[C@@H](Cc1ccccc1)C(=O)N[C@H](C(=O)N[C@@H](CC(N)=O)C(=O)N[C@@H](Cc1c[nH]c2ccccc12)C(=O)N[C@@H](CC(C)C)C(=O)N[C@@H](CC(C)C)C(=O)N[C@@H](C)C(=O)N[C@@H](CCC(N)=O)C(=O)N[C@@H](CCCCN)C(N)=O)C(C)C)[C@@H](C)CC
B5: AT174 [hGIP(5-30)NH2[I12K]-C16diacid/12] (peptide)
peptide: TFISDYSK(C16 diacid)AMDKIHQQDFVNWLLAQK-NH2
modifications: N-terminus assumed
SMILES: CC[C@H](C)[C@H](NC(=O)[C@H](CCCCN)NC(=O)[C@H](CC(=O)O)NC(=O)[C@H](CCSC)NC(=O)[C@H](C)NC(=O)[C@H](CCCCNC(=O)CCCCCCCCCCCCCCC(=O)O)NC(=O)[C@H](CO)NC(=O)[C@H](Cc1ccc(O)cc1)NC(=O)[C@H](CC(=O)O)NC(=O)[C@H](CO)NC(=O)[C@@H](NC(=O)[C@H](Cc1ccccc1)NC(=O)[C@@H](N)[C@@H](C)O)[C@@H](C)CC)C(=O)N[C@@H](Cc1c[nH]cn1)C(=O)N[C@@H](CCC(N)=O)C(=O)N[C@@H](CCC(N)=O)C(=O)N[C@@H](CC(=O)O)C(=O)N[C@@H](Cc1ccccc1)C(=O)N[C@H](C(=O)N[C@@H](CC(N)=O)C(=O)N[C@@H](Cc1c[nH]c2ccccc12)C(=O)N[C@@H](CC(C)C)C(=O)N[C@@H](CC(C)C)C(=O)N[C@@H](C)C(=O)N[C@@H](CCC(N)=O)C(=O)N[C@@H](CCCCN)C(N)=O)C(C)C
B6: AT179 [hGIP(5-30)NH2[Q19K]-C16diacid/19] (peptide)
peptide: TFISDYSIAMDKIHK(C16 diacid)QDFVNWLLAQK-NH2
modifications: N-terminus assumed
SMILES: CC[C@H](C)[C@H](NC(=O)[C@H](CO)NC(=O)[C@H](Cc1ccc(O)cc1)NC(=O)[C@H](CC(=O)O)NC(=O)[C@H](CO)NC(=O)[C@@H](NC(=O)[C@H](Cc1ccccc1)NC(=O)[C@@H](N)[C@@H](C)O)[C@@H](C)CC)C(=O)N[C@@H](C)C(=O)N[C@@H](CCSC)C(=O)N[C@@H](CC(=O)O)C(=O)N[C@@H](CCCCN)C(=O)N[C@H](C(=O)N[C@@H](Cc1c[nH]cn1)C(=O)N[C@@H](CCCCNC(=O)CCCCCCCCCCCCCCC(=O)O)C(=O)N[C@@H](CCC(N)=O)C(=O)N[C@@H](CC(=O)O)C(=O)N[C@@H](Cc1ccccc1)C(=O)N[C@H](C(=O)N[C@@H](CC(N)=O)C(=O)N[C@@H](Cc1c[nH]c2ccccc12)C(=O)N[C@@H](CC(C)C)C(=O)N[C@@H](CC(C)C)C(=O)N[C@@H](C)C(=O)N[C@@H](CCC(N)=O)C(=O)N[C@@H](CCCCN)C(N)=O)C(C)C)[C@@H](C)CC
B7: AT178 [hGIP(5-30)NH2[I17K]-C16diacid/17] (peptide)
peptide: TFISDYSIAMDKK(C16 diacid)HQQDFVNWLLAQK-NH2
modifications: N-terminus assumed
SMILES: CC[C@H](C)[C@H](NC(=O)[C@H](CO)NC(=O)[C@H](Cc1ccc(O)cc1)NC(=O)[C@H](CC(=O)O)NC(=O)[C@H](CO)NC(=O)[C@@H](NC(=O)[C@H](Cc1ccccc1)NC(=O)[C@@H](N)[C@@H](C)O)[C@@H](C)CC)C(=O)N[C@@H](C)C(=O)N[C@@H](CCSC)C(=O)N[C@@H](CC(=O)O)C(=O)N[C@@H](CCCCN)C(=O)N[C@@H](CCCCNC(=O)CCCCCCCCCCCCCCC(=O)O)C(=O)N[C@@H](Cc1c[nH]cn1)C(=O)N[C@@H](CCC(N)=O)C(=O)N[C@@H](CCC(N)=O)C(=O)N[C@@H](CC(=O)O)C(=O)N[C@@H](Cc1ccccc1)C(=O)N[C@H](C(=O)N[C@@H](CC(N)=O)C(=O)N[C@@H](Cc1c[nH]c2ccccc12)C(=O)N[C@@H](CC(C)C)C(=O)N[C@@H](CC(C)C)C(=O)N[C@@H](C)C(=O)N[C@@H](CCC(N)=O)C(=O)N[C@@H](CCCCN)C(N)=O)C(C)C

Legend:
human GIP receptor [1] = target: T1, human GIP receptor; assay: 125I-hGIP(1-42) competition binding, COS-7 cells expressing human GIPR, without HSA;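 further: nonspecific binding defined as radioligand bound to cells lacking the transfected receptor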
Description: (§1) After incubation, the cells were washed twice in ice-cold binding buffer (+/−2% HSA) and lysed using 200 mM NaOH with 1% SDS for 30 min. Nonspecific binding was determined as the binding of radioactive ligand to untransfected cells.

human GIP receptor [2] = target: T1, human GIP receptor; assay: ratio of Ki with 2% HSA to Ki without HSA, 125I-hGIP competition binding on hGIPR COS-7 cells;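 further: nonspecific binding was defined as radioligand signal on cells lacking the receptor transfection, with cell lysates measured after washes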
Description: as §1

human GIP receptor [3] = target: T1, human GIP receptor; assay: cell-based or functional assay
human GIP receptor [4] = target: T1, human GIP receptor; assay: 125I-hGIP(1-42) competition binding, COS-7 cells expressing human GIPR, with 2% HSA;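 further: nonspecific signal taken as radioligand bound to untransfected cells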
Description: as §1

Binder | Ki (human GIP receptor [1]) [nM] | Fold (Ki + HSA / Ki - HSA) (human GIP receptor [2]) [fold] | cAMP accumulation Fold (fold change from GIP(5-30)NH2) (human GIP receptor [3]) [fold] | cAMP accumulation IC50 (human GIP receptor [3]) [nM] | cAMP accumulation logIC50 (human GIP receptor [3]) | Ki (human GIP receptor [4]) [nM]
B1 | 6 | 9.7 | 0.3 | 9.1 | -8.04 log(M) | 58.7
B2 | 82.6 | 5.1 | 3.8 | 105 | -6.98 log(M) | 420
B3 | 53 | 9.4 | 0.5 | 14.1 | -7.85 log(M) | 498
B4 | 117 | 3.8 | 1.3 | 37.2 | -7.43 log(M) | 444
B5 | 56.1 | 6.1 | 0.9 | 23.4 | -7.63 log(M) | 342
B6 | 378 | 6.3 | 2.1 | 57.5 | -7.24 log(M) | 2380
B7 | 54.3 | 4.5 | 1 | 27.5 | -7.56 log(M) | 243
